Data on 19 molecules can be found in patent US20240327505A1 (published 2024).

Sequences and labels used below:
B1: AB-009357 (antibody, V domains shown)
VH: QLQLQESGPGLVKPSETLSLTCTVSGGSISSSSYYWGWIRQPPGKGLEWIGSIYYSGSTYYNPSLKSRVTISVDTSKNQFSLKLSSVTAADTAVYYCARHPLSSITIFGVVKREYYFDYWGQGTLVTVSS
VL: DIQMTQSPSSVSASVGDRVTITCRASQGISSWLAWYQQKPGKAPKLLIYAASSLQSGVPSRFSGSGSGTDFTLTISSLQPEDFATYYCQQANSFPLLFGGGTKVEIK
B2: AB-009335 (antibody, V domains shown)
VH: QVQLQESGPGLVKPSETLSLTCTVSGGSISSHYWSWIRQPPGKGLEWIGYIYYSGSTNYNPSLKSRVTISVDTSKNQFSLKLSSVTAADTAVYYCARVRREWLAAYFYYGMDVWGQGTTVTVSS
VL: B1 VL with V11L, S31N, W32Y, A43V, S53T, F83V, Q90K, A91Y, F94A, L97T
B3: AB-009610 (antibody, V domains shown)
VH: QVQLVQSGAEVKKPGSSVKVSCKASGGTFSNYAISWVRQAPGQGLEWMGRIIPILGIANYAQKFQGRVTITADKSTSTAYMELSSLRSEDTAVYYCATTPYYYDSSGYYLDYWGQGTLVTVSS
VL: not shown
B4: AB-009613 (antibody, V domains shown)
VH: EVQLVESGGGLIQPGGSLRLSCAASGFTVSSNYMSWVRQAPGKGLEWVSVIYSGGSTYYADSVKGRFTISRDNSKNTLYLQMNSLRAEDTAVYYCARDYGDFYFDYWGQGTLVTVSS
VL: not shown
B5: AB-009271 (antibody, V domains shown)
VH: B4 VH with T28I
VL: EIVMTQSPATLSVSPGERATLSCRASQSVSSNLAWYQQKPGQAPRLLIYGASTRATGIPARFSGSGSGTEFTLTISSLQSEDFAVYYCQQYYNWPRTFGQGTKVEIK
B6: AB-009620 (antibody, V domains shown)
VH: QITLKESGPTLVKPTQTLTLTCTFSGFSLSTSGVGVGWIRQPPGKALEWLALIYWDDDKRYSPSLKSRLTITKDTSKNQVVLTMTNMDPVDTATYYCAHHEVATVFDYWGQGTLVTVSS
VL: QSALTQPASVSGSPGQSITISCTGTSSDVGAYNYVSWYQQHPGKAPKLMIYEVSNRPSGVSNRFSGSKSGNTASLTISGLQAEDEADYYCSSYTSSSTVFGGGTKLTVL
B7: AB-009270 (antibody, V domains shown)
VH: QMQLVQSGPEVKKPGTSVKVSCKASGFTFTSSAMQWVRQARGQRLEWIGWIVVGSGNTNYAQKFQERVTITRDMSTSTAYMELSSLRSEDTAVYYCAVNYCSSTSCYDAFDIWGQGTMVTVSS
VL: not shown
B8: AB-010021 (antibody, V domains shown)
VH: B7 VH with M34V, V98A, N99V, S103G, T104G, Y107L
VL: not shown
notes: also called AB-0010021
B9: AB-010020 (antibody, V domains shown)
VH: B7 VH with M34V, V98A, N99P, Y100A, A109G
VL: not shown
B10: AB-009760 (antibody, V domains shown)
VH: EVQLVQSGAEVKKPGESLKISCKGSGYSFTSYWIGWVRQMPGKGLEWMGIIYPGDSDTRYSPSFQGQVTISADKSISTAYLQWSSLKASDTAMYYCARSRSSDYFDYWGQGTLVTVSS
VL: not shown
B11: AB-009095 (antibody, V domains shown)
VH: EVQLVQSGAEVKKPGESLIISCTGSGYTFATFWITWVRQMPGKGLEWLGRIDPSDSYTNYNPSFQGHVTVSVDRSINTAYLELTSLKASDTAIYYCARQMYNTGWPIPNYSDYWGQGTLVTVSS
VL: QSALTQPPSASGSPGQSVTISCAGASTDVGVYNFVSWYQQHPGKAPKLIIFDVNKRPSGVPDRFSGSKSGNTASLTVSGLQAEDEADYYCSSYEVGNNFVFGTGTKVTVL
B12: AB-009119 (antibody, V domains shown)
VH: EVQLVESGGGLVQPGGSLKLSCAASGFTFSGSAMHWVRQASGKGLEWVGRIRSKANSYATAYAASVKGRFTISRDDSKNTAYLQMNSLKTEDTAVYYCTRHGTTVNWGQGTLVTVSS
VL: not shown
B13: AB-009213 (antibody, V domains shown)
VH: EVQLVESGGGLVKPGGSLRLSCAASGFTFSSYSMNWVRQAPGKGLEWVSSISSSSSYIYYADSVKGRFTISRDNAKNSLYLQMNSLRAEDTAVYYCARDKLREDGDYDDAFDIWGQGTMVTVSS
VL: not shown
B14: AB-009112 (antibody, V domains shown)
VH: QVQLVESGGGVVQPGRSLRLSCAASGFTFSSYAMHWVRQAPGKGLEWVAVISYDGSNKYYADSVKGRFTISRDNSKNTLYLQMNSLRAEDTAVYYCASSLVGATKSYYYYYYGMDVWGQGTTVTVSS
VL: SYELTQPLSVSVALGQTARITCGGNNIGSKNVHWYQQKPGQAPVLVIYRDSNRPSGIPERFSGSNSGNTATLTISRAQAGDEADYYCQVWDSSSVVFGGGTKLTVL
B15: AB-009627 (antibody, V domains shown)
VH: QVQLQQWGAGLLKPSETLSLTCAVYGGSFSGYYWSWIRQPPGKGLEWIGEINHSGSTNYNPSLKSRVTISVDTSKNQFSLKLSSVTAADTAVFYCARGGYSSSWYGEKYWFDPWGQGTLVTVSS
VL: QSALTQPRSVSGSPGQSVTISCTGTSSDVGGYNYVSWYQQHPGKAPKLMIYDVSKRPSGVPDRFSGSKSGNTASLTISGLQAEDEADYYCCSYAGSPYVFGTGTKVTVL
B16: AB-009734 (antibody, V domains shown)
VH: QVHLVQSGAEVKTPGASVRVSCKASGYTFTSHYMHWVRQAPGQGLEWMGLINPSGSGTAYPQHFQGRVTMTRDTSTTTDYMDLSSLRSEDTAMYFCARMERSGAFDLWGQGTMVTVSS
VL: EIVLTQSPGTLSLSPGERATLSCRASQTISSRYLAWYYQKPGQAPRLLIQGSSIRATGIPDRFSGSGSGTDFTLTISRLEPEDFAVYYCQHYGSSPPMYTFGQGTKLEIK
B17: AB-009799 (antibody, V domains shown)
VH: QVQLVQSGAEVKKPGASVKVSCKASGYTFTSYDINWVRQATGQGLEWMGWMNPNSGNTGYAQKFQGRVTMTRNTSISTAYMELSSLRSEDTAVYYCARGRLRITIFNRVYYFDYWGQGTLVTVSS
VL: not shown
B18: AB-009791 (antibody, V domains shown)
VH: QLQLQESGPGLVKPSETLSLTCTVSGGSISSSSYYWGWIRQPPGKGLEWIGSIYYSGSTYYNPSLKSRVTISVDTSKNQFSLKLSSVTAADTAVYYCAREPRRVKQWLVVPYYYMDVWGKGTTVTVSS
VL: not shown
B19: AB-009778 (antibody, V domains shown)
VH: QLQLQESGPGLVKPSETLSLTCTVSGGSISSSSYYWGWIRQPPGKGLEWIGSIYYSGSTYYNPSLKSRVTISVDTSKNQFSLKLSSVTAADTAVYYCARQFRRWLQLGPSYFDYWGQGTLVTVSS
VL: not shown

Numbering of substitutions follows the chain as printed.

One experiment addresses SARS-CoV-2 Envelope (E) protein (SARS-CoV-2, UniProt P0DTC4 1-75). In words: ELISA, Envelope.
For B1, the “OD 450 nm” value is 0.221 OD.

As for B2, the “OD 450 nm” value amounted to 0.4 OD.

Another experiment has as its target SARS-CoV-2 Wuhan-1 full-length Spike protein on pseudovirus (SARS-CoV-2, UniProt P0DTC2 14-1273). In words: cell-based or functional assay.
Consider B3, for which the “Pseudovirus Neturalization” value amounted to 6.77 µg/mL.

As for B4, the “Pseudovirus Neturalization” value was determined as 1.53 µg/mL.

Consider B5, for which the “Pseudovirus Neturalization” value came out at 0.058 µg/mL.

As for B6, the “Pseudovirus Neturalization” value amounted to 1.04 µg/mL.

For the molecule B7, the “Pseudovirus Neturalization” value worked out at 0.065 µg/mL.

For B8, the “Pseudovirus Neturalization” value turned out to be 1.56 µg/mL.

Turning to B9, the “Pseudovirus Neturalization” value stood at 0.004 µg/mL.

Turning to B10, the “Pseudovirus Neturalization” value stood at 4.1 µg/mL.

The next experiment deals with SARS-CoV-2 spike protein on fully infectious (replication-competent) SARS-CoV-2 virus (SARS-CoV-2, UniProt P0DTC2 14-1273). In words: cell-based or functional assay.
Turning to B3, the “Neutralization (Infectious virus; (µg/mL))” value (“Neutralization” below) came out at 6.25 µg/mL.

As for B4, the “Neutralization” value was determined as 3.4 µg/mL.

For B5, the “Neutralization” value came to 0.181 µg/mL.

With B6, the “Neutralization” value came to 13.3 µg/mL.

Turning to B7, the “Neutralization” value came to 1.37 µg/mL.

B10: the “Neutralization” value was found to be 32.8 µg/mL.

A further experiment has as its target SARS-CoV-1 spike protein on pseudovirus (SARS-CoV-1, UniProt P59594 14-1255). In words: cell-based or functional assay.
As to B3, the “Pseudovirus Neturalization” value was over 50 µg/mL.

Take B4: the “Pseudovirus Neturalization” value is over 50 µg/mL.

As for B5, the “Pseudovirus Neturalization” value was over 50 µg/mL.

Turning to B6, the “Pseudovirus Neturalization” value was over 50 µg/mL.

On to B7, for which the “Pseudovirus Neturalization” value was over 50 µg/mL.

As for B8, the “Pseudovirus Neturalization” value was over 50 µg/mL.

On to B9, for which the “Pseudovirus Neturalization” value was over 50 µg/mL.

For B10, the “Pseudovirus Neturalization” value is over 50 µg/mL.

The target of a further experiment is SARS-CoV-2 Spike (S) trimer (SARS-CoV-2, UniProt P0DTC2 16-1213). In words: ELISA on coated S trimer, 1:50. On the technique in general: In an ELISA, binding on a coated surface is turned into a signal by an enzyme label.
Regarding B1, the “OD 450 nm” value amounted to 2.77 OD.

For the molecule B2, the “OD 450 nm” value stood at 1.03 OD.

A further experiment addresses SARS-CoV-2 spike S2 protein (SARS-CoV-2, UniProt P0DTC2 686-1213).
Experiment: not given
Take B11: the dissociation constant (Kd) – broadly, a measure of binding affinity in units of concentration – was 0.176 nM; the koff (as a rule, the first-order rate constant of dissociation) was 2.15e-07 s⁻¹; the kon (in general, the second-order rate constant of association) amounted to 1220 M⁻¹ s⁻¹.

On to B12, for which the affinity, expressed as Kd, was 0.0583 nM; the koff is 2.56e-07 s⁻¹; the kon turned out to be 4390 M⁻¹ s⁻¹.

The next experiment concerns the target SARS-CoV-2 Nucleocapsid (N) protein (SARS-CoV-2, UniProt P0DTC9 1-419).
Experiment: not given
As for B11, the equilibrium dissociation constant (Kd) turned out to be 0.833 nM, the off-rate (koff) was 5.93e-05 s⁻¹ and the kon came to 71100 M⁻¹ s⁻¹.

B12: the affinity, expressed as Kd, was 7.35 nM; the koff was 0.000647 s⁻¹; the on-rate constant (kon) is 88000 M⁻¹ s⁻¹.

As for B13, binding was characterised by a dissociation constant (Kd) of 10 nM, the koff was 0.00112 s⁻¹ and the kon turned out to be 112000 M⁻¹ s⁻¹.

B14 registered a Kd of 32.7 nM.

The target in the next experiment is SARS-CoV-2 S2 protein (SARS-CoV-2, UniProt P0DTC2 686-1213).
Experiment: not given
With B15, the affinity, expressed as Kd, was 0.246 nM; the koff was determined as 2.85e-07 s⁻¹; the on-rate (kon) is 1160 M⁻¹ s⁻¹.

In turn, B16 came in with a Kd of 12.4 nM, an off-rate constant (koff) of 0.000103 s⁻¹ and a kon of 8280 M⁻¹ s⁻¹.

The target of a further experiment is SARS-CoV-2 Nucleocapsid (N) protein (SARS-CoV-2, UniProt P0DTC9 1-419).
Experiment: not given
This is another data set of the same source.
For the molecule B17, the dissociation constant Kd stood at 19.6 nM, the koff was 0.000265 s⁻¹ and the kon worked out at 13600 M⁻¹ s⁻¹.

Regarding B18, the dissociation constant (Kd) amounted to 4.61 nM, the off-rate constant (koff) worked out at 8.35e-05 s⁻¹ and the kon amounted to 18100 M⁻¹ s⁻¹.

Molecule B19 yielded a Kd of 48.5 nM, an off-rate constant (koff) of 0.000866 s⁻¹ and an on-rate (kon) of 17800 M⁻¹ s⁻¹.

Consider B16, for which binding was characterised by a dissociation constant (Kd) of 22.2 nM, the dissociation rate constant (koff) is 0.000979 s⁻¹ and the kon was determined as 44000 M⁻¹ s⁻¹.

Another experiment deals with T1, SARS-CoV-2 spike S2 protein (SARS-CoV-2, UniProt P0DTC2 686-1213).
T1 construct: domain: S2
In words: BLI, as in Example 4.
Turning to B3, the binding result is “no binding”.

B4: the binding result is recorded as “no binding”.

Take B5: the binding result is “no binding”.

For B6, the binding result is listed as “no binding”.

As to B7, the binding result is recorded as “no binding”.

On to B8, for which the binding result was “no binding”.

For B9, the binding result is “no binding”.
